This note sets out measurements from patent US20120207760A1.

The target of assay [1] is 23 amino acid synthetic M2e peptide of A/Fort Worth/1/50 (influenza A virus A/Fort Worth/1/50 (H1N1)). Nature of the assay: ELISA on the 23mer M2e peptide (FIG. 14b). Background: An ELISA detects its analyte on a solid surface through an enzyme-linked reagent.
In assay [2] the target is M2 protein of influenza A/Wisconsin/67/05 (H3N2), on inactivated whole virions (Influenza A virus A/Wisconsin/67/2005 (H3N2)). Nature of the assay: ELISA, positive control antibody on inactivated whole virions.

Usually EC50 stands for the concentration needed to bring the measured effect to its halfway point.

Chain of TCN-032 (8I10) (antibody) (VH): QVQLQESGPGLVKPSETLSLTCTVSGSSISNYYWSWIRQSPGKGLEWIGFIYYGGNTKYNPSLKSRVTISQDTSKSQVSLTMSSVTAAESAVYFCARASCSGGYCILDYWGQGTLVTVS
Chain of TCN-032 (8I10) (antibody) (VL): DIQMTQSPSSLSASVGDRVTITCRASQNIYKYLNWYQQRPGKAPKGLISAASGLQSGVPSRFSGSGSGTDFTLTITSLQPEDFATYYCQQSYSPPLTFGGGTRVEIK

Consider “chimeric mouse V-region/human IgG1 kappa 14C2 antibody”, for which the concentration giving a half-maximal response (EC50) in assay [1] turned out to be 0.01 µg/mL.
The substance TCN-032 (8I10) (antibody) came in with an OD450 in assay [2] of 3.62 OD450.
